From patent publication US20210163538A1 (published 2021)
*1 amine or outer side, *2 acyl side, *3 side chain or, on linkers, in order; H or OH if unused. Bridges are numbered along the chain shown (N, C = ends). [ ]: non-standard residue; d: D form. AlexaFluor 647 = AlexaFluor 647 dye coupled as NHS ester to the Lys amine; Tyr(Me) = O-methyltyrosine, COc1ccc(C[C@H](N[*:1])C(=O)[*:2])cc1; Trp(5-F) = N[C@@H](Cc1c[nH]c2ccc(F)cc12)C(=O)O; mXylylene = c1cc(C[*:1])cc(C[*:2])c1; αMeP = C[C@@]1(C(=O)O)CCCN1; Mpa = O=C(O)CCS

Key:
biotinylated PCSK9 [1] = molecular target: T1, biotinylated PCSK9 (UniProt Q8NBP7 31-692, limits assumed, biotinylated (site not stated)); assay: method not stated; KD of the labelled probe of the Alexa FRET Standard assay
T1 construct: also called europium-labeled PCSK9

biotinylated PCSK9 [2] = molecular target: T1, biotinylated PCSK9; assay: method not stated; KD of the labelled probe of the Alexa FRET Plus assay

T1 sequence (Q8NBP7 31-692 limits assumed): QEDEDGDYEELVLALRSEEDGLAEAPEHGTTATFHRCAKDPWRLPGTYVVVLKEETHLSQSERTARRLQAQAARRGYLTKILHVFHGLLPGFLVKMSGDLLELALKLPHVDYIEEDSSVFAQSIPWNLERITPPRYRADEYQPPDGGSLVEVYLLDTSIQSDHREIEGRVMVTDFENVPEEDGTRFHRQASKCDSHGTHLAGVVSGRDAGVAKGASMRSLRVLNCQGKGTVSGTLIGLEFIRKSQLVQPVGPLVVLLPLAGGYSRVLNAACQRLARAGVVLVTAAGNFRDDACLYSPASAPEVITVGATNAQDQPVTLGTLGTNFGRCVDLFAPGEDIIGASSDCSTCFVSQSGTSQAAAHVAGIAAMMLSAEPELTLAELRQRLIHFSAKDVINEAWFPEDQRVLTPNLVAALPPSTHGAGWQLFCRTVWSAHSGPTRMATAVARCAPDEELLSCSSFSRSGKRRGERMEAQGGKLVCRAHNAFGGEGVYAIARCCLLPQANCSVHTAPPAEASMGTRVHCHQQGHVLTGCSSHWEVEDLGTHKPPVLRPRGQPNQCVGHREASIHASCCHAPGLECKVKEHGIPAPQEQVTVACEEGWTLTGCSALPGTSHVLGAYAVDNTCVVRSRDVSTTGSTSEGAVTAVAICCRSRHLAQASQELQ

B1: Reagent A (peptide)
peptide: [Mpa]K(AlexaFluor 647)G[Trp(5-F)][Trp(5-F)]DHY[αMeP]C-NH2
modifications: linker N-10 via mXylylene
notes: also called AlexaFluor647 (AF) tagged cyclic peptide; AF cyclic peptide
Question: With B1 as the binder, how does the Kd (biotinylated PCSK9 [1]) read?
Answer: 83 nM

B2: Reagent B (peptide)
peptide: [Mpa]K(AlexaFluor 647)[dA][Trp(5-F)][Trp(5-F)]DH[Tyr(Me)][αMeP]C-NH2
modifications: linker N-10 via mXylylene
notes: as for B1
Question: Which Kd (biotinylated PCSK9 [2]) does the source give for B2 here?
Answer: 35 nM
